Test results published in patent US20190040368A1.

Target: recombinant human iduronate-2 sulfatase (rhIDS) (human) (UniProt P22304)
Test: cell-based or functional assay

recombinant human iduronate-2 sulfatase (rhIDS) (human), sequence (P22304 26-550 limits assumed): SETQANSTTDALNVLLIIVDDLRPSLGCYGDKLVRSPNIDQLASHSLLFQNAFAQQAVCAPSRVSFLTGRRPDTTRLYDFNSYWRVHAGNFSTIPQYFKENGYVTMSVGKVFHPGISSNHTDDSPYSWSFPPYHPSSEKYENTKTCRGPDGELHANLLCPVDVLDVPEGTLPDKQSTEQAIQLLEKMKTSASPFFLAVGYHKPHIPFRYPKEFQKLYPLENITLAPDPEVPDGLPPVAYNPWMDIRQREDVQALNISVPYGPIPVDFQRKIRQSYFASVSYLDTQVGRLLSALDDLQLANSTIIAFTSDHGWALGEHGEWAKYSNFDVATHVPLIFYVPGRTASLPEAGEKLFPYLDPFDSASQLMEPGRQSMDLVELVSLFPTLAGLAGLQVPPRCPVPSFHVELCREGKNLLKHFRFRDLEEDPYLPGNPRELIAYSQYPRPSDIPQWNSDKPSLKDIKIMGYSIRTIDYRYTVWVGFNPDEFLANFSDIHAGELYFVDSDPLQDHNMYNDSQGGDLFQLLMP

% FGly (LC-MS); 1 copy rhIDS, 1 copy BtFGE (POX) [%] | % FGly (LC-MS); 1 copy rhIDS, 1 copy BtFGE (POX), 1 copy hPDI (POX) [%] | % FGly (LC-MS); co-expression with DpFGE [%] | Substance
100 | 100 |  | Bos taurus FGE fusion protein (Lip2pre-BtFGE-6HIS-HDEL) (from UniProt Q0P5L5 34-374) (enzyme)
 |  | 25 | Dendroctonus ponderosa Lip2-DpFGE-His6-HDEL fusion construct (enzyme)
